Measured values as given in the supplement of paper PMC9170038.

Tested on: MS2 coat protein
Experiment: apparent KD of MS2 coat protein; designed switch direction (-1 OFF switch, 1 ON switch): 1; higher = weaker reporter binding
Outline: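 RNA switches sharing common flanks were transcribed by stalled E. coli RNA polymerase on Illumina chips. A doubling series of SNAP-549-labelled MS2 coat protein, from 0.7 or 1.5 nM to 3 µM, was applied in Tris-HCl pH 7.5 buffer with KCl, MgCl2, BSA, DTT, tRNA and Tween-20. Each step lasted 0.8–1.5 h at the bottom of the series and 10–20 min at the top. Normalised cluster fluorescence was curve-fitted, giving apparent KD as the per-design median over clusters.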

[1] = Eterna round: R95, input ligand: FMN 200 uM
[2] = Eterna round: R95, input ligand: microRNA oligo, concentration not stated
[3] = Eterna round: R95, input ligand: none
[4] = input ligand: microRNA oligo, concentration not stated

Row | Sequence | apparent KD of MS2 coat protein [1] [nM] | apparent KD of MS2 coat protein [2] [nM] | apparent KD of MS2 coat protein [3] [nM] | apparent KD of MS2 coat protein (input ligand: FMN 200 uM) [nM] | apparent KD of MS2 coat protein [4] [nM] | apparent KD of MS2 coat protein (input ligand: none) [nM]
1 | UACAAUCUAUCUGAGGAUAUCAUGAUUUAAACAUGAGGAUCACCCAUGUGCAGGAAAACUGCAUAUGAGAAGGCAGAUAGAUUGU [salish99_ss2_r3_063] (puzzle: Same State 2) | 135 | 297 | 241 |  |  | 
2 | AGUAUACAUGAGGAUCACCCAUGUCUGUAACGGACAGGAUAUGCGUUGCAUCACUGUAAUGCAGAAGGGUCCUGUA [Same State 1 - Mod of JMF's solution 1 v.2] (puzzle: Same State 1) |  | 179 |  |  |  | 
3 | UAGUGCAUUAGAGGAUAUUCUUACGACACGAGUAAGACAUGAGGAUCUCCCAUGUUGUGGCAUGGGAAGAAGGCUGAUGUGCUA [Omei SS(NG)2 Bv8] (Eterna round: R96, puzzle: Same State NG 2) |  |  |  | 52.5 | 6.84 | 155
4 | UGCCUGAGUCGAGGAUAUUAUGGAUCAAUUAAUACAUGAGGAUCACCCAUGUAAUUAAUUUAACAUGAGAAGGUGACUCAGGCU [SSNG2/10-B3] (Eterna round: R96, puzzle: Same State NG 2) |  |  |  |  | 8.4 | 
5 | UUCUGACAUGAGGAUCACCCAUGUGAGACAUAUGGAGAAUCUCAGGAUAUCCUGAGGAUCACCCAGGAGAAGGGAGAUCCGACC (Eterna round: R96, puzzle: Same State NG 3) |  |  |  | 32 | 43.7 | 45.7
6 | GGUGGGUUACUACCAACACAUGAGGAUCACCCAUGUUUUGGGAAGGAUAUGGUACCUAUUUGGUACCAGAAGGUCCUGUUGGUG [salish99_SSNG3_r04_706] (Eterna round: R96, puzzle: Same State NG 3) |  |  |  | 36.6 | 105 | 116
7 | CGUCCGGCCUGUGCUGGCCGGUGGCUUGUACAUGAGGAUCACCCAUGUUCUUGUGCUGGCGUUUUGCUCGUCUUGUG [salish99_mir208a_r3_020] (puzzle: Sensor for hsa-mir-208a) | 28.2 | 20.7 | 32.5 |  |  | 
8 | AGUGAACAUGAGGAUCACCCAUGUGAGAGAAGUGUAGGAUAUGUGAGAGGCGGAGGAGGGACAGAAGGACAUGGAG [JR_SS!_Sub075] (puzzle: Same State 1) | 38.7 | 42 | 48.5 |  |  | 
9 | UUUAAACAUGAGGAUCACCCAUGUUUUUUUAUGGGAGGAUAUCUAAGUUAAUUAUAUUAAGGAGAAGGCCUAUUUU (Eterna round: R96, puzzle: Same State 1) |  |  |  | 28.1 | 136 | 145
10 | AUAAAACAUGAGGAUCACCCAUGUCAACAAAGUCGAGGAUAUGGGCAAAUAUAAUAAGAACCAGAAGGCGAAUAAU [salish99_ss1_r3_023] (puzzle: Same State 1) | 36.1 | 204 | 336 |  |  | 
11 | GUUACAUGAGGAUCACCCAUGUAUGUGUGGGAGUAAGUGUCUUAGGAUAUCUAUCAUUUAAAUUAAGAGAAGGAAGAUUGUUGU [JMF's solution 12] (Eterna round: R96, puzzle: Same State NG 3) |  |  |  | 126 | 73.5 | 118
12 | GGAGCCGGUACUGAGGAUAUUCAUAUUAAAACAUGAGGAUCACCCAUGUGGGCCAGAAGGCCUUGGGAGAAGGCAGACCAGCUCG [Atgexeedri - 3] (puzzle: Same State 2) | 15.4 | 115 | 177 |  |  | 
13 | AUUAUCUAUGCAGGAUAUGAUUAACAUGAGGAUCACCCAUGUGGUGUUGUGAGUAAGGAGAGUGAUCAGAAGGGCAUUUUUUUU [JMF's solution 65] (Eterna round: R96, puzzle: Same State NG 2) |  |  |  | 875 | 370 | 566
14 | GGAGCCAAGGCAGGAUAUUCAAAACAUGAGGAUCACCCAUGUGGGUAAAAGGCCAGAAGGCCUUGGGAGAAGGGCCAUGGCUCG [Xeonanis - 13 mod12] (Eterna round: R96, puzzle: Same State NG 2) |  |  |  | 11.5 | 9.02 | 15.8
15 | ACGCUAAAUGGAGGAUAUGGAGCCUUAUUGGCUCCAGAAGGUCAAAACAUGAGGAUCACCCAUGUGCGGUGGUCUAAUGACCAC [Eli NG1ss - 47] (Eterna round: R96, puzzle: Same State NG 1) |  |  |  | 68 | 99.2 | 169
16 | UGGAUCUAGGCUUGCCUGGGUCCAUGUUGACAUGAGGAUCACCCAUGUGUAUUUUUUUAGCUUUUUGUUUGUCAACA [JL A Humble Attempt mod 5] (puzzle: Sensor for hsa-mir-208a) | 39 | 15.1 | 41.1 |  |  | 

Row | Sequence | apparent KD of MS2 coat protein [1] [nM] | apparent KD of MS2 coat protein [2] [nM] | apparent KD of MS2 coat protein [3] [nM] | apparent KD of MS2 coat protein (input ligand: FMN 200 uM) [nM] | apparent KD of MS2 coat protein [4] [nM] | apparent KD of MS2 coat protein (input ligand: none) [nM]
17 | AGUGAAGAAGCUGAGGAUAUCGUAAGGAGGACAUGAGGAUCACCCAUGUGUGUGGAAUUGGAGGACGAGAAGGCAGAGGAGUGGG [JR_SS2_Sub057] (puzzle: Same State 2) | 39.3 | 42.6 | 22.7 |  |  | 
18 | GGUGCCAAAUAAGCCUACAUGAGGAUCACCCAUGUAUGUAGGCAGGAUAUCGUAUGCAAAGCAUACGAGAAGGGCCGAGGCACC [Mat - Same State NG 3 - JL Mod - D57] (Eterna round: R96, puzzle: Same State NG 3) |  |  |  | 23.8 | 29.3 | 47.1
19 | AACAAUCUAUCUGAGGAUAUCAUGAAAUAAACAUGAGGAUCACCCAUGUGCAGGAUAACUGCAUAUGAGAAGGCAGAUAGAUUGA [salish99_ss2_r3_041] (puzzle: Same State 2) | 57.3 | 661 | 656 |  |  | 
20 | AAAAGAAACAUGUACCUGAGUACAUGAAAACAUGAGGAUCACCCAUGUAACAAGUUGGGUGUUUGUCUUAUAAGAAA [JL pocket 5] (Eterna round: R96, puzzle: Sensor for hsa-mir-208a) |  |  |  | 68.7 | 238 | 231
21 | AGUCCAGCCUGAGCUGGACAAAAGCAUGUACAUGAGGAUCACCCAUGUUCAUGUACAAGCUUUUUGCUCGUCUAAAU [Mat - hsa-mir-208a - Mod of JL - 46] (puzzle: Sensor for hsa-mir-208a) | 449 | 15.5 | 682 |  |  | 
22 | AGCCGAGACGCAGGAUAUAGAUAUCUACAUGAGGAUCACCCAUGUAGCAACACGUGGUAGUGAUUCUAGAAGGGUGCUCGGCGC [Omei SS(NG)2 Cv7] (Eterna round: R96, puzzle: Same State NG 2) |  |  |  | 44.9 | 322 | 504
23 | GUGGUGGGUUGAGGAUAUUGGUUGUCGUUGUCCCACAUGAGGAUCACCCAUGUGGGUUGUGGUUUUGAGAAGGUUGGUUGCUGG [salish99_SSNG2_r04_052] (Eterna round: R96, puzzle: Same State NG 2) |  |  |  |  | 12.9 | 
24 | AUACUCAUGUAAGGAUAUGCAGCCGUUUCGGCUGCAGAAGGUACUAUAAUACAUGAGGAUCACCCAUGUCUCUCGCAUUGCGAG [JL SSNG1 1.47] (Eterna round: R96, puzzle: Same State NG 1) |  |  |  |  | 49.2 | 
25 | UAGUUUUAGCGAGGAUAUCGUAUGUUUAAUUUUUUAUAUUGUUUACAUGAGGAUCACCCAUGUUACGAGAAGGCGCAUGGGAUU [JR_SSNG2_Sub080] (Eterna round: R96, puzzle: Same State NG 2) |  |  |  |  | 273 | 
26 | CUGAGAUGUCAAGGAUAUCACGUCGAUUAGACGUGAGAAGGUGAUCAGUACAUGAGGAUCACCCAUGUGUUACAUGGAACUCAG [Brourd's SSNG1/1-A2 mod 9] (Eterna round: R96, puzzle: Same State NG 1) |  |  |  | 868 | 102 | 571
27 | ACAAGCUUUUUGCUCCUCUUAUGUCCGAAACAUGAGGAUCACCCAUGUAUAGAUUGUGUGUUGUUGUAGAUGCAAGA [JR_SHM208A_Sub061] (Eterna round: R96, puzzle: Sensor for hsa-mir-208a) |  |  |  | 73.8 | 63.4 | 74.1
28 | CGUAGGUAGCUGGAGGAUAUUCGAGUGGUAACAUGAGGAUCACCCAUGUGGAGAGAGGAACAUGAGGAGAAGGCUAGCUGCCUGC [JL-ss2-3.19 JL mod] (puzzle: Same State 2) | 8.36 | 21.7 | 16.7 |  |  | 
29 | AAGAAACAUGAGGAUCACCCAUGUGAUAAUAUGGGAGGAUAUACAAAGACGAAAGUCGAAGUAGAAGGCCUAUGAA [Garnet 43] (Eterna round: R96, puzzle: Same State 1) |  |  |  | 46.4 | 50.9 | 68.7
30 | AGUUGUGGAAAACUAUAGCAAAAGUAUGUACAUGAGGAUCACCCAUGUCAUGUACAAGCUUUUUGCUCGUCUUAAAA [ak 4 mod of one Eli's designs.] (puzzle: Sensor for hsa-mir-208a) | 23 | 21 | 23.3 |  |  | 
31 | GCUCGAUGAGCUGUUUACAUGAGGAUCACCCAUGUAGAUGCGGAGGAUAUUUACGUGCUUUAUGUAGAGAAGGCCGUAUCGAGC [SameState NG3 #80] (Eterna round: R96, puzzle: Same State NG 3) |  |  |  | 14 | 24.5 | 24.1
32 | CUGUCUACAGGUGUCUUUGCUCGUUUUAUACAUGAGGAUCACCCAUGUUGUAGCCCGGUGCUUGCGCUGGGCUGGUU [JL ViennaUCT Tearor mod 9] (puzzle: Sensor for hsa-mir-208a) | 66 | 15.6 | 72.7 |  |  | 
